The numbers were not newly measured in publication PMC4520744, which cites them from elsewhere.

A word on the Kd: it is the free concentration of one partner at which half of the binding sites on the other are occupied at equilibrium, for simple one-to-one binding.

The target in this data set is HBV capsid protein (Hepatitis B virus) (UniProt P03149).

Take “HBV capsid protein (from UniProt P03149)”: the Kd is 3000 µM.
